Source: US10428140B2, “Anti-EphA4 antibody” (EISAI R&D MANAGEMENT CO., LTD., priority 2015, dated 2019)
Substitutions are numbered along the chain they refer to. One block for each molecule: values may come before it.

What was measured:
Assay in all cases: Selectivity ELISA of humanized antibodies for human Eph receptor
Assay type in all cases: binding
Conditions in all cases: coated protein 1 nM
human EphA2 = target: T1, human EphA2 (Homo sapiens, UniProt P29317)
T1 construct: a protein of the extracellular region of each human Eph receptor fused with the SEAP protein and the His tag; made in house; host or cells: Expi293F cells (culture supernatant)
T1 sequence (P29317 24-537 limits assumed): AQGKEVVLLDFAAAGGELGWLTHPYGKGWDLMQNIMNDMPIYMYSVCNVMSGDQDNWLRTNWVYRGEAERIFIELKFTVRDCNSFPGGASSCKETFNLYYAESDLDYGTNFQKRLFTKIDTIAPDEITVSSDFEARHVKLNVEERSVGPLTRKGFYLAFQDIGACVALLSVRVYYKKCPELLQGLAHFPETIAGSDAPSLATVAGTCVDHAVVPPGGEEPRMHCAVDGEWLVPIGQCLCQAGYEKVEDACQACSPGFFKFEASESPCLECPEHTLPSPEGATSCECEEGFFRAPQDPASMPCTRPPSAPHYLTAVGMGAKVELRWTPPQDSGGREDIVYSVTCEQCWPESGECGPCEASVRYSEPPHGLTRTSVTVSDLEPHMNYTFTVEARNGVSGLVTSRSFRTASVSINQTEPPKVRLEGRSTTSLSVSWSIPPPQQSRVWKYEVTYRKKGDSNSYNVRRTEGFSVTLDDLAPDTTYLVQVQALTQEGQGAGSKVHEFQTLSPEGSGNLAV
Outline: (§1)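 His-tagged SEAP fusions of each human Eph receptor extracellular region, from Expi293F supernatants, were captured at 1 nM on anti-His-coated wells. Humanized antibody was bound 1 h at room temperature, then detected with HRP […] IgG. TMB development was acid-stopped and read at 450 nm.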

human EphA6 = target: T2, human EphA6 (Homo sapiens, UniProt Q9UF33)
T2 construct: a protein of the extracellular region of each human Eph receptor fused with the SEAP protein and the His tag; made in house; host or cells: Expi293F cells (culture supernatant)
T2 sequence (Q9UF33 23-550 limits assumed): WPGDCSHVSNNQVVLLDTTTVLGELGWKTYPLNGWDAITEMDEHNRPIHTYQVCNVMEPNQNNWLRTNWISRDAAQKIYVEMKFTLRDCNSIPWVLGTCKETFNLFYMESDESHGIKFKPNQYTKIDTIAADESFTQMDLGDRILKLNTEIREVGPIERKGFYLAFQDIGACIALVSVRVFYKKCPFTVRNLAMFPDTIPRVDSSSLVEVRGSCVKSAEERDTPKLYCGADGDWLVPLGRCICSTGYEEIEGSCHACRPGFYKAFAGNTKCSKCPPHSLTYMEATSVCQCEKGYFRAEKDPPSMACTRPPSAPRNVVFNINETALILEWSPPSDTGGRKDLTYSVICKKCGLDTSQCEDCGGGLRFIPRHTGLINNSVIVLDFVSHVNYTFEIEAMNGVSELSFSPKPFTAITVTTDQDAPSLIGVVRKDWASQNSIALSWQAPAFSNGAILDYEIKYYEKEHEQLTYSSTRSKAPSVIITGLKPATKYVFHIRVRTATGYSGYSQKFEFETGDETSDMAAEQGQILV
Outline: as §1

human EphB6 = target: T3, human EphB6 (Homo sapiens, UniProt O15197)
T3 construct: a protein of the extracellular region of each human Eph receptor fused with the SEAP protein and the His tag; made in house; host or cells: Expi293F cells
T3 sequence (O15197 32-594 limits assumed): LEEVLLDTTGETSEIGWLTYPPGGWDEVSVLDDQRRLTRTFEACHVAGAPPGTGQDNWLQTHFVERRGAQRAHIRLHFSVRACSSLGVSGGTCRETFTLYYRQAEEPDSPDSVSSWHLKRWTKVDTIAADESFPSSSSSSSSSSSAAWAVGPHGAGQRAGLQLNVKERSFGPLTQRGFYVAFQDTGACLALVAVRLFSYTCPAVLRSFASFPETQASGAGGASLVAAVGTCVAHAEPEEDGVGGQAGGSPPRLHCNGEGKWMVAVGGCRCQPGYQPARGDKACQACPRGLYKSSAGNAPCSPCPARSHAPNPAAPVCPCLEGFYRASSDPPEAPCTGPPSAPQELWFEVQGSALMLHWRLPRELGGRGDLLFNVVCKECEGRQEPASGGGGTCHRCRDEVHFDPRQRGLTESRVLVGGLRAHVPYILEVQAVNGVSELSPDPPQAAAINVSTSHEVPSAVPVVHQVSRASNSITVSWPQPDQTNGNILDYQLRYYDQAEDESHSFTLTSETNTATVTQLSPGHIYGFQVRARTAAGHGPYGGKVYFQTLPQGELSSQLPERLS
Outline: as §1

SEAP-His = SEAP-His (Homo sapiens, UniProt P05187)
Chain of SEAP-His (P05187 23-511 limits assumed): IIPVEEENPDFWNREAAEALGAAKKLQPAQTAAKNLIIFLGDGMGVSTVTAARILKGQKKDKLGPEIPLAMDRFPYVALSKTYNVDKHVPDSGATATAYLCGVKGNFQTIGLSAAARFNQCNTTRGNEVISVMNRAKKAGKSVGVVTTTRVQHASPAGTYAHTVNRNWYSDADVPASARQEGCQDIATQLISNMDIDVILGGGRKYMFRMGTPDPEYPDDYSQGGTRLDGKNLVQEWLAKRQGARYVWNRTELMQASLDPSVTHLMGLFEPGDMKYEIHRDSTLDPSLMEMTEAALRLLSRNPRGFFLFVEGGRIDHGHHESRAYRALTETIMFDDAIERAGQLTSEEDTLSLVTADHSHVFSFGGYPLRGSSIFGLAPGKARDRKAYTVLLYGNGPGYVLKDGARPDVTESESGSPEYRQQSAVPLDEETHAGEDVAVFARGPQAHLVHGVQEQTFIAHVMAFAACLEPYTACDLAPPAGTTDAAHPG
Outline: as §1

B2: 133 (antibody, V domains shown)
VH: QVQLVQSGSELKKPGASVKVSCKASGYTFTDYSMHWVRQAPGQGLEWMGWINTETGEPTYAQGFTGRFVFSLDTSVSTAYLQISSLKAEDTAVYYCARIPLYYYGSRYWYFDVWGQGTTVTVSS
VL: EIVMTQSPATLSVSPGERATLSCRASENIYRNLAWYQQKPGQSPRLLIYAATNLADGIPARFSGSGSGTEYTLTISSLQSEDFAVYYCQHFWGTPWTFGQGTKVEIK
modifications: synthetic humanized antibody heavy chain variable region sequence; synthetic humanized antibody light chain variable region sequence
hEphA2-SEAP-: absorbance at 450 nm, percentage with respect to hEphA4-SEAP-His as 100% (human EphA2): 4.7%
hEphA6-SEAP-: absorbance at 450 nm, percentage with respect to hEphA4-SEAP-His as 100% (human EphA6): 8.8%
hEphB6-SEAP-: absorbance at 450 nm, percentage with respect to hEphA4-SEAP-His as 100% (human EphB6): 4.8%
SEAP-His: absorbance at 450 nm, percentage with respect to hEphA4-SEAP-His as 100% (SEAP-His): 4.7%

B3: 75 (antibody)
VH: B2 VH
VL: DIQMTQSPSSLSASVGDRVTITCRASENIYRNLAWYQQKPGKAPKLLVYAATNLADGVPSRFSGSGSGTDYTLTISSLQPEDFATYYCQHFWGTPWTFGQGTKVEIK
chain: ASTKGPSVFPLAPSSKSTSGGTAALGCLVKDYFPEPVTVSWNSGALTSGVHTFPAVLQSSGLYSLSSVVTVPSSSLGTQTYICNVNHKPSNTKVDKRVEPKSCDKTHTCPPCPAPPAAAPSVFLFPPKPKDTLMISRTPEVTCVVVDVSHEDPEVQFNWYVDGVEVHNAKTKPREEQFNSTFRVVSVLTVVHQDWLNGKEYKCKVSNKGLPAPIEKTISKTKGQPREPQVYTLPPSREEMTKNQVSLTCLVKGFYPSDIAVEWESNGQPENNYKTTPPMLDSDGSFFLYSKLTVDKSRWQQGNVFSCSVMHEALHNHYTQKSLSLSPG
modifications: synthetic humanized antibody heavy chain variable region sequence; synthetic humanized antibody light chain variable region sequence; synthetic antibody constant region sequence
hEphA2-SEAP-: absorbance at 450 nm, percentage with respect to hEphA4-SEAP-His as 100% (human EphA2): 4.6%
hEphA6-SEAP-: absorbance at 450 nm, percentage with respect to hEphA4-SEAP-His as 100% (human EphA6): 8.3%
hEphB6-SEAP-: absorbance at 450 nm, percentage with respect to hEphA4-SEAP-His as 100% (human EphB6): 4.7%
SEAP-His: absorbance at 450 nm, percentage with respect to hEphA4-SEAP-His as 100% (SEAP-His): 4.4%

B9: 135 (antibody, V domains shown)
VH: B2 VH with Q62D, G63D, T65K
VL: B2 VL
modifications: synthetic humanized antibody heavy chain variable region sequence; synthetic humanized antibody light chain variable region sequence
hEphA2-SEAP-: absorbance at 450 nm, percentage with respect to hEphA4-SEAP-His as 100% (human EphA2): 5.0%
hEphA6-SEAP-: absorbance at 450 nm, percentage with respect to hEphA4-SEAP-His as 100% (human EphA6): 7.0%
hEphB6-SEAP-: absorbance at 450 nm, percentage with respect to hEphA4-SEAP-His as 100% (human EphB6): 5.3%
SEAP-His: absorbance at 450 nm, percentage with respect to hEphA4-SEAP-His as 100% (SEAP-His): 5.3%

B10: 134 (antibody, V domains shown)
VH: B2 VH with E46K
VL: B2 VL
modifications: synthetic humanized antibody heavy chain variable region sequence; synthetic humanized antibody light chain variable region sequence
hEphA2-SEAP-: absorbance at 450 nm, percentage with respect to hEphA4-SEAP-His as 100% (human EphA2): 5.0%
hEphA6-SEAP-: absorbance at 450 nm, percentage with respect to hEphA4-SEAP-His as 100% (human EphA6): 9.6%
hEphB6-SEAP-: absorbance at 450 nm, percentage with respect to hEphA4-SEAP-His as 100% (human EphB6): 5.2%
SEAP-His: absorbance at 450 nm, percentage with respect to hEphA4-SEAP-His as 100% (SEAP-His): 5.1%

B11: 132 (antibody, V domains shown)
VH: B2 VH with V2I, E46K
VL: B2 VL
modifications: synthetic humanized antibody heavy chain variable region sequence; synthetic humanized antibody light chain variable region sequence
hEphA2-SEAP-: absorbance at 450 nm, percentage with respect to hEphA4-SEAP-His as 100% (human EphA2): 4.8%
hEphA6-SEAP-: absorbance at 450 nm, percentage with respect to hEphA4-SEAP-His as 100% (human EphA6): 9.7%
hEphB6-SEAP-: absorbance at 450 nm, percentage with respect to hEphA4-SEAP-His as 100% (human EphB6): 4.7%
SEAP-His: absorbance at 450 nm, percentage with respect to hEphA4-SEAP-His as 100% (SEAP-His): 4.9%

Other lines, results leading:

hEphA2-SEAP-: absorbance at 450 nm, percentage with respect to hEphA4-SEAP-His as 100% (human EphA2): 5.5%
hEphA6-SEAP-: absorbance at 450 nm, percentage with respect to hEphA4-SEAP-His as 100% (human EphA6): 7.2%
hEphB6-SEAP-: absorbance at 450 nm, percentage with respect to hEphA4-SEAP-His as 100% (human EphB6): 5.6%
SEAP-His: absorbance at 450 nm, percentage with respect to hEphA4-SEAP-His as 100% (SEAP-His): 5.8%
B1: 155 (antibody, V domains shown)
VH: B2 VH with V2I, E46K, Q62D, G63D, T65K
VL: B3 VL with V48L, P80S
modifications: synthetic humanized antibody heavy chain variable region sequence; synthetic humanized antibody light chain variable region sequence

hEphA2-SEAP-: absorbance at 450 nm, percentage with respect to hEphA4-SEAP-His as 100% (human EphA2): 6.3%
hEphA6-SEAP-: absorbance at 450 nm, percentage with respect to hEphA4-SEAP-His as 100% (human EphA6): 9.0%
hEphB6-SEAP-: absorbance at 450 nm, percentage with respect to hEphA4-SEAP-His as 100% (human EphB6): 6.3%
SEAP-His: absorbance at 450 nm, percentage with respect to hEphA4-SEAP-His as 100% (SEAP-His): 6.1%
B4: 157 (antibody, V domains shown)
VH: B2 VH
VL: B3 VL with K45Q, V48L
modifications: synthetic humanized antibody heavy chain variable region sequence; synthetic humanized antibody light chain variable region sequence

hEphA2-SEAP-: absorbance at 450 nm, percentage with respect to hEphA4-SEAP-His as 100% (human EphA2): 6.7%
hEphA6-SEAP-: absorbance at 450 nm, percentage with respect to hEphA4-SEAP-His as 100% (human EphA6): 10.0%
hEphB6-SEAP-: absorbance at 450 nm, percentage with respect to hEphA4-SEAP-His as 100% (human EphB6): 6.3%
SEAP-His: absorbance at 450 nm, percentage with respect to hEphA4-SEAP-His as 100% (SEAP-His): 6.3%
B5: 158 (antibody, V domains shown)
VH: B2 VH with E46K
VL: B3 VL with K45Q, V48L
modifications: synthetic humanized antibody heavy chain variable region sequence; synthetic humanized antibody light chain variable region sequence

hEphA2-SEAP-: absorbance at 450 nm, percentage with respect to hEphA4-SEAP-His as 100% (human EphA2): 6.1%
hEphA6-SEAP-: absorbance at 450 nm, percentage with respect to hEphA4-SEAP-His as 100% (human EphA6): 8.7%
hEphB6-SEAP-: absorbance at 450 nm, percentage with respect to hEphA4-SEAP-His as 100% (human EphB6): 6.2%
SEAP-His: absorbance at 450 nm, percentage with respect to hEphA4-SEAP-His as 100% (SEAP-His): 6.3%
B6: 160 (antibody, V domains shown)
VH: B2 VH with V2I, E46K, Q62D, G63D, T65K
VL: B3 VL with K45Q, V48L
modifications: synthetic humanized antibody heavy chain variable region sequence; synthetic humanized antibody light chain variable region sequence

hEphA2-SEAP-: absorbance at 450 nm, percentage with respect to hEphA4-SEAP-His as 100% (human EphA2): 5.4%
hEphA6-SEAP-: absorbance at 450 nm, percentage with respect to hEphA4-SEAP-His as 100% (human EphA6): 7.6%
hEphB6-SEAP-: absorbance at 450 nm, percentage with respect to hEphA4-SEAP-His as 100% (human EphB6): 5.5%
SEAP-His: absorbance at 450 nm, percentage with respect to hEphA4-SEAP-His as 100% (SEAP-His): 5.3%
B7: 159 (antibody, V domains shown)
VH: B2 VH with E46K, Q62D, G63D, T65K
VL: B3 VL with K45Q, V48L
modifications: synthetic humanized antibody heavy chain variable region sequence; synthetic humanized antibody light chain variable region sequence

hEphA2-SEAP-: absorbance at 450 nm, percentage with respect to hEphA4-SEAP-His as 100% (human EphA2): 5.6%
hEphA6-SEAP-: absorbance at 450 nm, percentage with respect to hEphA4-SEAP-His as 100% (human EphA6): 8.1%
hEphB6-SEAP-: absorbance at 450 nm, percentage with respect to hEphA4-SEAP-His as 100% (human EphB6): 5.9%
SEAP-His: absorbance at 450 nm, percentage with respect to hEphA4-SEAP-His as 100% (SEAP-His): 5.7%
B8: 144 (antibody, V domains shown)
VH: B2 VH with Q62D, G63D, T65K
VL: B3 VL with K45Q, V48L
modifications: synthetic humanized antibody heavy chain variable region sequence; synthetic humanized antibody light chain variable region sequence
